Assay [1] addresses Human Rac1 (human, UniProt P63000 1-192). Put plainly: BLI; ForteBio BLItz; His-GEF1 (0.5 uM) or SR6-GEF1 (2 uM) loaded on Ni-NTA biosensors; nucleotide-free Rac1 at 4-5 concentrations in assay buffer (20 mM Hepes pH 7.25, 150 mM KCl, 5% glycerol, 0.01% TritonX-100, 1 mM DTT); Kd = koff/kon from the linear fit of kobs against Rac1 concentration. The following applies: both partners purified. On the technique in general: BLI is a label-free optical method that tracks binding on a fibre tip over time.

The target is the same in assay [2]. Described as above. The following applies: both partners purified. This is another data set of the same source.

B1: Human Trio SR6-GEF1 (domain or fragment)
chain: not shown
notes: Trio, human, spectrin repeats 6-9 appended to the GEF1 domain, 99 kDa; amino acids 788 to 1599 as stated for SR6-GEF1 in the modelling paragraph; Cloned into the pFastBac1 HTa vector; The limits 788-1599 are printed for the modelled SR6-GEF1, not in the cloning paragraph; also called His-SR6-GEF1; WT SR6-GEF1; source: Hi5 cells infected with baculovirus, purified (Ni-NTA, S200 Increase)
In general, Kd refers to the constant that tells how readily two partners part at equilibrium. Low readings indicate higher affinity, high ones lower affinity. In the assay with Human Rac1 [1], B1 yielded a Kd of 316 nM.

B2: Human Trio GEF1 (domain or fragment)
chain: not shown
modifications: His tag omitted (used for Ni-NTA immobilization). The GEF1 limits are not printed: the C-terminus 1599 comes from the printed SR6-GEF1 construct (788-1599), and the N-terminus about 1284 follows the …
Turning to B2, the Kd with Human Rac1 [2] came out at 151 nM.

The values above are taken from paper PMC9467883, “Autoinhibition of the GEF activity of cytoskeletal regulatory protein Trio is disrupted in neurodevelopmental disorder-related genetic variants” (The Journal of Biological Chemistry, 2022).
